Five molecules from patent US20140212423A1 (AbbVie / Abbott, published 2014) can be followed below.

Assay [1] deals with T1, mouse Transferrin Receptor overexpressed on Hek 293 cells (mouse, UniProt Q62351 1-763).
T1 construct: whole, on cells; also called Hek293/mTfR; 293/mTFR
The assay is described as follows: mTFR binding cell-based assay. Here is the method: (§1) Meso-scale Discovery (MSD) Electrochemiluminescesnce (ECL) assays to screen for antibodies or DVDs that bind a desired target antigen expressed on the cell surface were performed as follows: Hek 293 cells overexpressing mouse Transferin Receptor were added onto MSD 96-well plates (MSD Cat# L11 XB-3, lot#2290-EA) which were blocked using blocking buffer (30% FBS Serum (Hyclone) in PBS) at 37° C. for 1 hr. After incubating at RT for 30 min with mild agitation, plates were washed with DPBS 3 times and Abs/DVDs (10,000 ng/ml) were added. After incubating for 1 hr at RT, plates were washed 3 times with DPBS and 25 ul of Goat anti human Sulfo TAG (MSD Cat# R32AC-, Lot# W001162) at 1 μg/ml is added. Following a 1 h incubation at RT for 1 hr, plates are washed and MSD read buffer is added before reading on MSD SECTOR Imager 6000. EC50 values are obtained using Xlfit4 software package

The target in the next assay is T2, rmTfR (123-763) (mouse, UniProt Q62351 123-763).
T2 construct: range 123-763; also called recombinant mouse transferrin receptor 123-763
Description: Biacore SPR, antibody captured via anti-human Fc, rmTfR (123-763) in solution. Here is the method: (§2) The BIACORE assay (Biacore, Inc, Piscataway, N.J.) was used to determine the affinity of antibodies or DVD-Ig™ with kinetic measurements of on-rate and off-rate constants. Binding of antibodies or DVD-Ig™ to a target antigen (for example, a purified recombinant target antigen) was determined by surface plasmon resonance-based measurements with a Biacore® 1000 or 3000 instrument (Biacore® AB, Uppsala, Sweden) using running HBS-EP (10 mM HEPES [pH 7.4], 150 mM NaCl, 3 mM EDTA, and 0.005% surfactant P20) at 25° C. All chemicals were obtained from Biacore® AB (Uppsala, Sweden) or otherwise from a different source as described in the text. For example, approximately 5000 RU of goat anti-human IgG, (Fcγ), fragment specific polyclonal antibody (Pierce Biotechnology Inc, Rockford, Ill.) diluted in 10 mM sodium acetate (pH 4.5) was directly immobilized across a CM5 research grade biosensor chip using a standard amine coupling kit according to manufacturer's instructions and procedures at 25 μg/ml. Unreacted moieties on the biosensor surface are blocked with ethanolamine. Modified carboxymethyl dextran surface in flowcell 2 and 4 is used as a reaction surface. Unmodified carboxymethyl dextran without goat anti-human IgG in flow cell 1 and 3 is used as the reference surface. For kinetic analysis, rate equations derived from the 1:1 Langmuir binding model were fitted simultaneously to association and dissociation phases of all eight injections (using global fit analysis) with the use of Biaevaluation 4.0.1 software. Purified antibodies or DVD-Ig™ were diluted in HEPES-buffered saline for capture across goat anti-human IgG specific reaction surfaces. Antibodies or DVD-Ig™ to be captured as a ligand (25 μg/ml) were injected over reaction matrices at a flow rate of 5 μl/min. The association and dissociation rate constants, kon (M⁻¹s⁻¹) and koff (s⁻¹) are determined under a continuous flow rate of 25 μl/min. Rate constants are derived by making kinetic binding measurements at different antigen concentrations ranging from 10-200 nM. The equilibrium dissociation constant (M) of the reaction between antibodies or DVD-Ig™s and the target antigen is then calculated from the kinetic rate constants by the following formula: KD=koff/kon. Binding is recorded as a function of time and kinetic rate constants are calculated.

For assay [2], the target named is T1, mouse Transferrin Receptor …. The assay is described as follows: cell-based MSD-ECL binding on Hek293 cells overexpressing mouse TfR. Here is the method: as §1
The target is the same in assay [3]. The assay is described as follows: MSD-ECL assay, column headed IC50 (values match the cell-based mTfR binding EC50 of Table 7).
For assay [4] the target is unchanged. Description: TfR binding EC50 column of Table 8 (cell-based assay; repeats Table 7). Here is the method:
as §1

Another assay addresses T3, rmTfR (119-763) (mouse, UniProt Q62351 119-763).
T3 construct: range 119-763; also called recombinant mouse transferrin receptor 119-763
The assay is described as follows: Biacore SPR, antibody captured via anti-human Fc, rmTfR (119-763) in solution. Here is the method: as §2, with “Antibodies or DVD-Ig™ to be captured as a ligand (25 μg/ml) were injected over reaction matrices at a flow rate of 5 μl/min.” left out, “Rate constants are derived by making kinetic binding measurements at different antigen concentrations ranging from 10-200 nM.” left out

T2 sequence (Q62351 123-763): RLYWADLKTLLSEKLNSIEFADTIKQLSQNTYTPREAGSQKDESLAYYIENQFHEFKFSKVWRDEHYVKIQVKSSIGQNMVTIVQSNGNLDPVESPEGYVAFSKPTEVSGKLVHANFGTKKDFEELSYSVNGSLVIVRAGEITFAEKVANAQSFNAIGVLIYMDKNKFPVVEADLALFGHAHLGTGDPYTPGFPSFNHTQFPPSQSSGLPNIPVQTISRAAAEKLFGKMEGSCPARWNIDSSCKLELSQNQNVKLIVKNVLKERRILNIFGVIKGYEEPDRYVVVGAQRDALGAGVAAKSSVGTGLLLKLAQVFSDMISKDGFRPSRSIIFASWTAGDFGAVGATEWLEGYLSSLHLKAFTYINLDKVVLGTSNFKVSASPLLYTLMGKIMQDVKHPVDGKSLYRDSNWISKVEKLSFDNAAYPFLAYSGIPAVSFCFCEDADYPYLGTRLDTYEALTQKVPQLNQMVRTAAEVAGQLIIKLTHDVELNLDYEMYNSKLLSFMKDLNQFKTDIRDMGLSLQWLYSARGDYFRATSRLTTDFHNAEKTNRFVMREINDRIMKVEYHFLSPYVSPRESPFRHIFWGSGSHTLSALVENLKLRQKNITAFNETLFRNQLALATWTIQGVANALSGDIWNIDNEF
T1 sequence (Q62351 whole entry): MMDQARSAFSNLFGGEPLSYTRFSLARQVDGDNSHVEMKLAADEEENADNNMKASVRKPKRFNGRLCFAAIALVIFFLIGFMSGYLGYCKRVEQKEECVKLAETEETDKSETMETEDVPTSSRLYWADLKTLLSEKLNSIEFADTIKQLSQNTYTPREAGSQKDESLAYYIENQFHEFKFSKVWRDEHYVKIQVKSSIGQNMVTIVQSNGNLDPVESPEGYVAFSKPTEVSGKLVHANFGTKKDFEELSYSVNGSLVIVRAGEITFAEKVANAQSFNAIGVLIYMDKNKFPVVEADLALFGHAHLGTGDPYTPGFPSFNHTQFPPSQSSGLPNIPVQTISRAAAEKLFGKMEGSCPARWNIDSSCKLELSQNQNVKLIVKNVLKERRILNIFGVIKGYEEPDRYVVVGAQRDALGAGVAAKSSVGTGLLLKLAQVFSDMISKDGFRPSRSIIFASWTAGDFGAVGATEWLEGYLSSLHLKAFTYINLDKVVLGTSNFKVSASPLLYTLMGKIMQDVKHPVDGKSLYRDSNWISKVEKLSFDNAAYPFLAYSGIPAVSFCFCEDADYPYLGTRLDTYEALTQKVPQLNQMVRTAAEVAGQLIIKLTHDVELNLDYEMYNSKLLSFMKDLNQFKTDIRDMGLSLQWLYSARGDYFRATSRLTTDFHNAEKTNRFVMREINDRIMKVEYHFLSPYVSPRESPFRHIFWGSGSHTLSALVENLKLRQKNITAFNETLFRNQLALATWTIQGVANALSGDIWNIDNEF
T3 sequence (Q62351 119-763): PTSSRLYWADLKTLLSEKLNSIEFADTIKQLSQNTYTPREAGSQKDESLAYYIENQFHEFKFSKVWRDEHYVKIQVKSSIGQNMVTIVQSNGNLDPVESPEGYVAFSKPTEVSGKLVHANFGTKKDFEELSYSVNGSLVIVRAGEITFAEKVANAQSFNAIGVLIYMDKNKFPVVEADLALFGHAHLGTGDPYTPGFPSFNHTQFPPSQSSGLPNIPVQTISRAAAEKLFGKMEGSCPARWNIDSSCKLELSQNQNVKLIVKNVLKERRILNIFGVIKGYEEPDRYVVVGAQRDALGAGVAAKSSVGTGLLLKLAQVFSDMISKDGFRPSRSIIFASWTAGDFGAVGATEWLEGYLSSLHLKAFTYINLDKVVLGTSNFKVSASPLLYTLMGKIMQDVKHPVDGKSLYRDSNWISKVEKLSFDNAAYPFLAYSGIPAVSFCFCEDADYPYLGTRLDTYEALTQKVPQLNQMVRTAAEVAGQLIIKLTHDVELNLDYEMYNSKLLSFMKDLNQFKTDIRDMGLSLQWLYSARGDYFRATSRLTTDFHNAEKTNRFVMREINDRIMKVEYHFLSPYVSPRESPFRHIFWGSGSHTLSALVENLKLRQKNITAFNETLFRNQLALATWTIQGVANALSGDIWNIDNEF

B1: AB402 (antibody, V domains shown)
VH: EVQLVESGGGLVQPGGSLRLSCAASGFTFSNYGMHWIRQAPGKGLEWIAMIYYDSSKMNYADTVKGRFTISRDNAKNSLYLQMNSLRAEDTAVYYCAVPTSHYVVDVWGQGTTVTVSS
VL: AIQMTQSPSSLSASVGDRVTITCQASQDIGNWLAWYQQKPGKSPKLLIYGATSLADGVPSRFSGSRSGTDFTLTISSLQPEDFATYYCLQAYNTPWTFGGGTKVEIKR
notes: humanized variant of AB221; also called TfR(AB402)
B1 had an EC50 in assay [1] of 0.06 nM. In the assay with rmTfR (123-763), binding was characterised by a dissociation constant (Kd) of 3.7 nM, the koff worked out at 6.12e-05 s⁻¹ and the kon is 16400 M⁻¹ s⁻¹. Also, the response in assay [2] was half-maximal at 0.06 nM (EC50).

B2: DVD2668 (bispecific antibody)
VH: EVQLVESGGGLVQPGNSLTLSCVASGFTFSNYGMHWIRQAPKKGLEWIAMIYYDSSKMNYADTVKGRFTISRDNSKNTLYLEMNSLRSEDTAMYYCAVPTSHYVVDVWGQGVSVTVSSASTKGPSVFPLAPEVQLLESGGGLVQPGGSLRLSCAASGFTFSNYGMSWVRQAPGKGLEWVASIRSGGGRTYYSDNVKGRFTISRDNSKNTLYLQMNSLRAEDTAVYYCVRYDHYSGSSDYWGQGTLVTVSS
VL: DIQMTQSPASLSASLEEIVTITCQASQDIGNWLAWYQQKPGKSPQLLIYGATSLADGVPSRFSGSRSGTQFSLKISRVQVEDIGIYYCLQAYNTPWTFGGGTKLELKRTVAAPDVVMTQSPLSLPVTPGEPASISCKSSQSLLDSDGKTYLNWLLQKPGQSPQRLIYLVSKLDSGVPDRFSGSGSGTDFTLKISRVEAEDVGVYYCWQGTHFPRTFGQGTKVEIKR
notes: DVD-Ig, outer AB221 (TfR), inner AB043 (APP/Abeta), HG-long/LK-short; dual variable regions only; constant regions not assigned; also called TfRLSAbeta DVD2668
Molecule B2 registered an IC50 in assay [3] of 0.1 nM. The molecule further had an EC50 in assay [2] of 0.1 nM.

B3: DVD2671 (bispecific antibody)
VH: EVQLLESGGGLVQPGGSLRLSCAASGFTFSNYGMSWVRQAPGKGLEWVASIRSGGGRTYYSDNVKGRFTISRDNSKNTLYLQMNSLRAEDTAVYYCVRYDHYSGSSDYWGQGTLVTVSSASTKGPSVFPLAPEVQLVESGGGLVQPGNSLTLSCVASGFTFSNYGMHWIRQAPKKGLEWIAMIYYDSSKMNYADTVKGRFTISRDNSKNTLYLEMNSLRSEDTAMYYCAVPTSHYVVDVWGQGVSVTVSS
VL: DVVMTQSPLSLPVTPGEPASISCKSSQSLLDSDGKTYLNWLLQKPGQSPQRLIYLVSKLDSGVPDRFSGSGSGTDFTLKISRVEAEDVGVYYCWQGTHFPRTFGQGTKVEIKRTVAAPDIQMTQSPASLSASLEEIVTITCQASQDIGNWLAWYQQKPGKSPQLLIYGATSLADGVPSRFSGSRSGTQFSLKISRVQVEDIGIYYCLQAYNTPWTFGGGTKLELK
notes: DVD-Ig; also called AbetaLSTfR DVD2671
For the molecule B3, the IC50 in assay [3] was 1.2 nM. The EC50 in assay [2] was 1.2 nM.

B4: AB221 (antibody, V domains shown)
VH: EVQLVESGGGLVQPGNSLTLSCVASGFTFSNYGMHWIRQAPKKGLEWIAMIYYDSSKMNYADTVKGRFTISRDNSKNTLYLEMNSLRSEDTAMYYCAVPTSHYVVDVWGQGVSVTVSS
VL: DIQMTQSPASLSASLEEIVTITCQASQDIGNWLAWYQQKPGKSPQLLIYGATSLADGVPSRFSGSRSGTQFSLKISRVQVEDIGIYYCLQAYNTPWTFGGGTKLELKR
notes: the assays detect/capture with anti-human IgG reagents; constant regions not assigned; also called TfR(AB221); anti-mouse TfR(AB221) antibody
B4: in assay [1], the EC50 stood at 0.12 nM. For the same molecule, the EC50 in assay [2] came to 0.1 nM. Also, the midpoint of the response in assay [4], the EC50, lay at 0.1 nM. In the assay with rmTfR (119-763), this molecule came in with a Kd of 5 nM, a koff of 0.000181 s⁻¹ and a kon of 39400 M⁻¹ s⁻¹.

B5: AB405 (antibody, V domains shown)
VH: QVQLVQSGAEVKKPGASVKVSCKASGFTFSNYGMHWIRQAPGQGLEWIAMIYYDSSKMNYADTVKGRFTITRDNSTNTLYMELSSLRSEDTAVYYCAVPTSHYVVDVWGQGTTVTVSS
VL: EIVMTQSPATLSVSPGERATLSCQASQDIGNWLAWYQQKPGQSPRLLIYGATSLADGVPARFSGSRSGTEFTLTISSLQSEDFAVYYCLQAYNTPWTFGGGTKVEIKR
notes: constant regions not assigned; also called TfR(AB405)
Take B5: the EC50 in assay [1], in assay [2] and in assay [4] was 13.6 nM throughout. Further, in the assay with rmTfR (123-763), the binding result was “no binding (tested: antigen 10-200 nM)”.
